From publication PMC10206189, “Nanobody inhibitors of Plexin-B1 identify allostery in plexin–semaphorin interactions and signaling” (The Journal of Biological Chemistry, 2023)
Like-named read-outs stand apart in the source and are kept apart here.

B6: mouse Plexin-B1 (20–535)-6xHis (domain or fragment, UniProt Q8CJH3 20-535, looked up)
chain: LRSPLPAAFTANGTHLQHLARDPTTGTLYVGATNFLFQLSPGLQLEAVVSTGPVNDSRDCLPPVIPDECPQAQPTNNPNQLLLVSPEALVVCGSVHQGICELRSLGQIRQLLLRPERPGDTQYVAANDPAVSTVGLVAQGLVGEPLLFVGRGYTSRGVGGGIPPITTRALRPPDPQAAFSYEETAKLAVGRLSEYSHHFVSAFVRGASAYFLFLRRDLKAPSRAFRAYVSRVCLQDQHYYSYVELPLACQGGRYGLIQAAAVATSKEVARGDVLFAAFSSVAPPTVDWPLSASTGASGTSVLCAFPLDEVDQLANYTRDACYTREGRAENGTKVADIAYDVLSDCAQLPVDTPDAFPCGSDHTPSPMVSCVPLEATPILELPGVQLTAVAVTMEDGHTIAFLGDSQGQLHRVYLGPGRSAAPYSKQSIQPGSPVNRDLTFDGTFEHLYVATQTTLVKVPVAPCAQHLDCDSCLAHRDPYCGWCVLLGRCSRRSECSRDQGPEQWLWSFQPELGCLR
notes: mouse Plexin-B1, sema and PSI1 domains (D1-2); For crystallography the N-linked glycans were trimmed to a single N-acetylglucosamine with EndoH; also called mPlexin-B1; mouse Plexin-B1 domains 1 and 2; source: Expi293F, secreted, purified (Excel HisTrap, Superdex 200)

How the values were obtained:
[1] = molecular target: B6
[2] = molecular target: B6; test: crystal structure; VHH15:mPlexin-B1 complex, EndoH-treated; 8% PEG 8000, 0.1 M sodium citrate pH 5.0, 1% dextran sulphate, 18 °C; details: both partners purified
[3] = molecular target: B6; test: crystal structure; VHH14:VHH15:mPlexin-B1 ternary complex; 15% PEG 6000, 0.1 M sodium citrate pH 5.5, 3% dextran sulphate, 18 °C; details: both partners purified
[4] = molecular target: T1, VHH15-Fc (huarizo); test: BLI; Octet RED384, 25 °C, 1× Kinetics buffer; purified VHH-Fc captured on Protein G biosensors, mouse Plexin-B1 in solution (VHH14-Fc: 10-3.75 nM, 1800 s association, 7200 s dissociation; VHH15-Fc: 160-10 nM, 600 s, 510 s); global 1:1 fit; details: both partners purified
T1 construct: VHH cloned upstream of the Fc of human IgG1 (vector pHCMVi-Script HuIgG1 Fc); source: Expi293F, transfected; culture supernatant, and purified (HiTrap MabSelect, Superdex 200); not shown: Fc (human IgG1), C-terminal, kept

[5] = molecular target: T2, Recombinant Sema4D (1–677) with C-terminal 6xHis-tag (human, UniProt Q92854 22-677); test: BLI; competition assay, Octet RED384, 1× Kinetics buffer; biotinylated murine Plexin-B1 on streptavidin biosensors, 10 μg/ml human Sema4D with or without 100 nM VHH-Fc bound beforehand; details: both partners purified
T2 construct: signal peptide in the construct; human Sema4D, residues 1-677 cloned in pcDNA5 and expressed as a secreted protein; also called human Sema4D; source: Expi293F, purified as the Plexin-B1 constructs (Excel HisTrap, Superdex 200)
T2 sequence (looked up): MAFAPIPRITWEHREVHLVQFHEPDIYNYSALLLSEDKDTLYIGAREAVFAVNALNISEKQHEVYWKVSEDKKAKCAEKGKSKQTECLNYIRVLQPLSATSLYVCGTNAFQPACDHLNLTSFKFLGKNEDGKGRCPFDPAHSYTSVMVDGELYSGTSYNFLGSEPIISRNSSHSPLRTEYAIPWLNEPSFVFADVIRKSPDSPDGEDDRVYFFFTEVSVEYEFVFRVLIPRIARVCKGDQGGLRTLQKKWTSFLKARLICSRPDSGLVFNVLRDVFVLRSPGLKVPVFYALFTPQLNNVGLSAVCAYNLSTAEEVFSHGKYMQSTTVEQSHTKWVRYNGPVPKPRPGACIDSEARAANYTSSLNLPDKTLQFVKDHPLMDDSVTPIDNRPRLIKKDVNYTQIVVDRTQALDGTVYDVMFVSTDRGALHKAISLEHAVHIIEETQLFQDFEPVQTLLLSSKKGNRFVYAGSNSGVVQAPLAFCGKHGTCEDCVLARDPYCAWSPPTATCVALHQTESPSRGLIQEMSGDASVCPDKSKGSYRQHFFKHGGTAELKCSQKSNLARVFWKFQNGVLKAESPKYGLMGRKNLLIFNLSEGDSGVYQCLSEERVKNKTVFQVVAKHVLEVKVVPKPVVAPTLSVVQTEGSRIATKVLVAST

[6] = molecular target: T3, VHH14-Fc (huarizo); test: BLI; first phase of the competition assay: 100 nM VHH-Fc on biotinylated murine Plexin-B1 held on streptavidin biosensors; by the order of the results the VHH-Fcs were still in supernatants; details: one partner purified
T3 construct: VHH cloned upstream of the Fc of human IgG1 (vector pHCMVi-Script HuIgG1 Fc); source: Expi293F, transfected; culture supernatant, and purified (HiTrap MabSelect, Superdex 200); not shown: Fc (human IgG1), C-terminal, kept

[7] = molecular target: T1, VHH15-Fc; test: as above; details: one partner purified
[8] = molecular target: T3, VHH14-Fc; test: BLI; supernatants containing VHH-Fcs tested against mouse and human Plexin-B1; details: one partner purified
[9] = molecular target: T1, VHH15-Fc; test: as above; details: one partner purified

B1: VHH13 (VHH)
VHH: QVQLQESGGGLVQAGGSLRLSCVASGFTFSSYAMGWYRRTPGNQQQLVATVSSSGTTYYGDSVKGRFTISRDNAKKTVYLQMNSLKPEDTAVYYCWRIGYWGQGTQVTVSA
B1: binds [1].

B2: VHH16 (VHH)
VHH: QVQLQESGGDLVQAGGSLRLSCEVSGSSFDIYHWAWYRQVPGKEREWVATAYSAGTTHYADSVKGRFTISRDNAKNTVYLQMNSLIPEDTAVYFCNANIYWGRGTQVTVSA
B2: binds [1].

B3: VHH17 (VHH)
VHH: QVQLQESGGGLVQAGGSLRLSCVAAGIPFSAYAMSWYRQAPGKQRDHIATVSSGGTTYYADSVKGRFTISRDNAKNTVYLQMNSLKPEDTAVYFCNTEFALGNWGQGTQVTVSA
B3: binds [1].

B4: VHH15-6xHis (VHH)
VHH: QVQLQESGGGLVQPGGSLRLSCAASGFRLDYYAIGWFRQAPGKEREGVLCISSSGGSINYADSVKGRFTISRDNAKNTVYLQMNSLKPEDTAVYYCGASSYNTQRAECYGMDYWGKGTQVTVSA
notes: VHH15; not shown: His6, C-terminal, kept
B4: binds [2].

B5: VHH14-6xHis (VHH)
VHH: QVQLQESGGGLVQAGGSLRLSCAASGFTLGYYAIGWFRQAPGKEREEVSCINASGGSTFYEDSVKGRFTISRDNAKNTVFLQMNRLKPEDTAVYYCAAACEVVAVGYWGQGTQVTVSA
notes: VHH14
B5: binds [3].

For B6, the Kd [4] was 37.5 nM.

B7: biotinylated mouse Plexin-B1 (20–535)-Avi-6xHis (domain or fragment, UniProt Q8CJH3 20-535, looked up)
chain: LRSPLPAAFTANGTHLQHLARDPTTGTLYVGATNFLFQLSPGLQLEAVVSTGPVNDSRDCLPPVIPDECPQAQPTNNPNQLLLVSPEALVVCGSVHQGICELRSLGQIRQLLLRPERPGDTQYVAANDPAVSTVGLVAQGLVGEPLLFVGRGYTSRGVGGGIPPITTRALRPPDPQAAFSYEETAKLAVGRLSEYSHHFVSAFVRGASAYFLFLRRDLKAPSRAFRAYVSRVCLQDQHYYSYVELPLACQGGRYGLIQAAAVATSKEVARGDVLFAAFSSVAPPTVDWPLSASTGASGTSVLCAFPLDEVDQLANYTRDACYTREGRAENGTKVADIAYDVLSDCAQLPVDTPDAFPCGSDHTPSPMVSCVPLEATPILELPGVQLTAVAVTMEDGHTIAFLGDSQGQLHRVYLGPGRSAAPYSKQSIQPGSPVNRDLTFDGTFEHLYVATQTTLVKVPVAPCAQHLDCDSCLAHRDPYCGWCVLLGRCSRRSECSRDQGPEQWLWSFQPELGCLR
modifications: biotin on the Avi-tag (BirA, in vitro)
notes: the Avi-tag stands between the C terminus of the fragment and the 6xHis-tag; source: Expi293F, secreted, purified as the unmodified version; biotinylated in vitro with BirA
B7: binds [5].

B8: biotinylated mouse Plexin-B1 (20–535)-Avi-6xHis (domain or fragment, UniProt Q8CJH3 20-535, looked up)
chain: LRSPLPAAFTANGTHLQHLARDPTTGTLYVGATNFLFQLSPGLQLEAVVSTGPVNDSRDCLPPVIPDECPQAQPTNNPNQLLLVSPEALVVCGSVHQGICELRSLGQIRQLLLRPERPGDTQYVAANDPAVSTVGLVAQGLVGEPLLFVGRGYTSRGVGGGIPPITTRALRPPDPQAAFSYEETAKLAVGRLSEYSHHFVSAFVRGASAYFLFLRRDLKAPSRAFRAYVSRVCLQDQHYYSYVELPLACQGGRYGLIQAAAVATSKEVARGDVLFAAFSSVAPPTVDWPLSASTGASGTSVLCAFPLDEVDQLANYTRDACYTREGRAENGTKVADIAYDVLSDCAQLPVDTPDAFPCGSDHTPSPMVSCVPLEATPILELPGVQLTAVAVTMEDGHTIAFLGDSQGQLHRVYLGPGRSAAPYSKQSIQPGSPVNRDLTFDGTFEHLYVATQTTLVKVPVAPCAQHLDCDSCLAHRDPYCGWCVLLGRCSRRSECSRDQGPEQWLWSFQPELGCLR
modifications: biotin on the Avi-tag (BirA, in vitro)
notes: as for B7
B8: binds [6]; binds [7].

B9: human Plexin-B1 (20–535) (domain or fragment, UniProt O43157 20-535, looked up)
chain: LQPLPPTAFTPNGTYLQHLARDPTSGTLYLGATNFLFQLSPGLQLEATVSTGPVLDSRDCLPPVMPDECPQAQPTNNPNQLLLVSPGALVVCGSVHQGVCEQRRLGQLEQLLLRPERPGDTQYVAANDPAVSTVGLVAQGLAGEPLLFVGRGYTSRGVGGGIPPITTRALWPPDPQAAFSYEETAKLAVGRLSEYSHHFVSAFARGASAYFLFLRRDLQAQSRAFRAYVSRVCLRDQHYYSYVELPLACEGGRYGLIQAAAVATSREVAHGEVLFAAFSSAAPPTVGRPPSAAAGASGASALCAFPLDEVDRLANRTRDACYTREGRAEDGTEVAYIEYDVNSDCAQLPVDTLDAYPCGSDHTPSPMASRVPLEATPILEWPGIQLTAVAVTMEDGHTIAFLGDSQGQLHRVYLGPGSDGHPYSTQSIQQGSAVSRDLTFDGTFEHLYVMTQSTLLKVPVASCAQHLDCASCLAHRDPYCGWCVLLGRCSRRSECSRGQGPEQWLWSFQPELGCLQ
notes: human Plexin-B1, sema and PSI1 domains; also called hPlexin-B1; source: Expi293F, secreted, purified (Excel HisTrap, Superdex 200)
B9: no binding [8]; no binding [9].
